Measurements published in the supplement of paper PMC10567573.

B1: DVL3 (parent)
chain: FCADNPSELPPPMERTGGIGDSRP
B2: KIAA1161 (parent)
chain: FMPAMQFSIPPWRYDAEVVAIAQK

Variants of: B1
Assay: protein stability index of a GFP-peptide fusion (GPS, HEK-293T) (PSI 1-6); higher = more stable
Conditions: c terminus: a fixed tail appended
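Also: lentivirally expressed fusions sorted by FACS into six bins by GFP to DsRed ratio, PSI derived from sequencing read proportions per bin multiplied by bin number.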

Protein stability index, by site and new letter:
E14: R 3.78 | A 4.24 | K 4.07 | Y 3.13 | L 3.05 | G 3.84 | Q 4.1 | S 4.31 | H 4.08 | P 4.27 | N 4.35 | W 1.93 | F 3.45 | M 4.37 | D 4.55
P11: A 5.1 | C 4.33 | M 4.45 | D 4.74 | E 4.05 | V 3.94 | T 5.12 | H 4.43 | N 4.26 | I 4.54
P24: T 4.12 | G 4.71 | M 3.65 | K 4.92 | W 3.23 | S 4.73 | V 4.55 | F 3.82 | Y 3.6 | I 4.32
T16: C 4.07 | D 5.18 | V 4.02 | I 3.98 | F 3.95 | P 3.87 | M 4.11 | Y 3.96 | W 2.55 | G 4.45 | E 4.45 | S 4.25 | Q 5
D21: A 4.36 | C 3.98 | F 3.89 | K 4.21 | H 4.37 | N 4.11 | W 2.97 | T 4.52 | E 5.27 | P 4.16
R15: W 3.77 | G 4.56 | H 4.97 | E 5.37 | D 4.76 | S 4.82 | V 4.5 | N 4.79 | L 4.51 | M 4.25
S22: A 4.61 | I 4 | M 4.09 | T 4.7 | N 5.01 | V 4.15 | P 4.63 | W 3.97 | H 4.34 | D 4.88 | K 4.77 | Y 4.23 | G 4
N5: G 4.46 | A 4.31 | L 3.32 | Q 4.45 | K 4.29 | D 4.92 | V 4.58 | W 3.23 | Y 3.62 | E 4.8 | S 4.78
I19: D 4.94 | K 5.59 | F 4.37 | Y 4.35 | N 4.82 | Q 4.65 | S 5.22 | C 4.94 | V 5.09 | H 5.16 | A 5.33 | W 3.51
D4: R 4.36 | K 2.85 | L 3.83 | M 3.26 | T 4.29 | E 5 | N 3.96 | A 4.19 | W 2.06
S7: A 4.57 | F 4.24 | Y 3.81 | D 5.04 | N 4.45 | M 4.3 | I 4.19 | T 4.22 | E 5.11
G20: M 4.18 | D 4.51 | V 4.49 | Q 4.79 | T 4.66 | F 3.78 | N 4.54 | H 4.18 | R 3.83 | E 4.53 | Y 3.45 | I 4.48 | K 4.32
L9: E 5.34 | Q 4.16 | H 4.66 | N 5.1 | K 4.66 | Y 4.11 | S 4.99 | C 4.79 | V 4.82
P6: L 3.88 | G 3.85 | A 4.71 | K 4.33 | D 4.03 | F 4.38 | S 3.95 | T 3.99
R23: M 4.12 | L 3.74 | N 5.22 | D 5.18 | C 4.59 | Y 4.15 | E 4.95 | Q 4.56 | K 4.94 | F 3.55 | A 4.89 | G 4.72
C2: Y 4.75 | F 4.31 | R 4.58 | P 4.73 | G 4.83 | K 4.68 | S 5 | A 4.77
G18: T 4.47 | Q 4.81 | E 5.06 | N 4.89 | D 4.77 | H 4.34 | Y 3.38 | R 4.34
P12: N 4.69 | E 4.89 | Y 3.63 | L 4.63 | M 4.19 | I 3.76 | V 4.62 | K 4.69 | S 4.07 | T 3.99
M13: G 4.67 | Q 5 | T 4.57 | F 4.6 | N 4.77 | K 5.04 | V 4.89 | I 4.27 | R 4.2
F1: K 4.86 | Q 4.83 | D 5.43 | C 3.99 | I 5.05 | E 5.12 | Y 4.89 | T 4.99 | M 3.45 | S 4.94
P10: C 3.81 | K 4.37 | I 3.81 | D 4.81 | T 4.61 | E 2.94 | L 4.32 | Q 4.27 | H 4.3 | M 4.54
E8: Y 3.25 | T 4.02 | S 4.63 | R 3.05 | A 4.36 | F 2.6 | L 3.67 | Q 2.77 | P 4.14 | H 3.95 | K 3.47
A3: F 3.56 | T 4.29 | E 5.23 | I 4.25 | Y 4.49 | W 3.64 | P 4.17 | C 4.13 | M 4.48
G17: K 4.89 | T 4.48 | V 4.12 | S 4.3 | A 4.51 | F 3.79 | E 4.54 | Q 4.73 | R 4.62 | L 4.12 | I 4.09 | Y 3.91

Variants of: B2
Assay: as above
Conditions: c terminus: a fixed tail appended

Protein stability index, by site and new letter:
A16: E 1.97 | W 1.66 | M 1.53 | S 1.72
Q6: F 1.4 | H 1.86
E17: V 1.24 | D 1.54 | P 1.48 | Q 3.67
S8: T 1.64
K24: G 1.33 | Q 1.86 | A 2.31 | M 1.33
D15: W 1.19 | P 1.17 | M 2.56
Q23: S 1.52 | T 1.92 | G 1.78 | K 2.2 | M 3.29
Y14: Q 2.57 | F 1.63
A22: D 1.96
M2: E 2.83
V19: K 1.99 | H 1.56 | S 1.48 | P 4.1 | L 1.47
M5: V 2.23 | G 3.64 | C 2.11 | D 1.48 | T 1.68
A20: H 1.97 | S 1.59 | T 1.92 | F 2.54 | M 1.32 | D 3.07 | W 1.04
A4: T 1.76 | K 1.87
W12: K 2.17 | Y 1.99 | M 2.7 | E 2.08 | L 2.23 | P 2.74
P10: T 2 | H 1.77
V18: C 1.86 | G 2.6 | T 1.88 | H 2.93 | N 2.23
F1: M 2.83 | L 2.37 | K 2.55 | E 2.81 | D 3.37
R13: P 2.17 | A 2.04 | T 2.02 | Q 2.53
I9: T 1.8 | N 2.28 | H 2.35
P3: L 2.22 | M 4 | N 2.39
I21: F 2.52 | L 1.93 | Q 2.81
F7: A 1.97 | H 2.01 | M 1.91
P11: G 1.48 | A 1.61 | S 2.03
